Changes are numbered by the printed parent chain. Names and notes keep the numbering of the source.
B1: parental antibody, PMN310 humanized antibody variant VH2/Vk5 (human IgG4 S241P / kappa) (antibody, V domains shown)
VH: QVQLVQSGAEVKKPGASVKMSCKASGYSFTSYWINWVKQRPGQGLEWIGDVHPGRGVSTYNAKFKSRATLTLDTSISTAYMELSSLRSEDTAVYYCSRSHGNTYWFFDVWGQGTTVTVSS
VL: DVLMTQSPLSLPVTLGQPASISCRSSQSIVHSNGNTYLEWYQQRPGQSPRLLIYKVSNRFSGVPDRFSGSGSGTDFTLKISRVEAEDVGVYYCFQGSHVPFTFGQGTKLEIKR
notes: also called parental huPMN310; huPMN310
B2: Clone 4 (affinity matured VH with parental Vk, human IgG4 S241P / kappa) (antibody, V domains shown)
VH: B1 VH with S97A, S99V, H100S, G101P, N102T, T103G
VL: B1 VL
B3: Clone 13 (antibody, human IgG4 S228P, kappa, V domains shown)
VH: B1 VH with S97A, H100V, N102D, F107Y
VL: B1 VL
B4: Clone 5 (affinity matured VH with parental Vk, human IgG4 S241P / kappa) (antibody, V domains shown)
VH: B1 VH with S97A, S99G, H100A, G101L, N102S, T103P
VL: B1 VL
B5: Clone 14 (affinity matured VH with parental Vk, human IgG4 S241P / kappa) (antibody, V domains shown)
VH: B1 VH with S97A, R98K, H100D, G101A, N102S, T103G
VL: B1 VL

Columns and labels:
[1] = target: T1, cyclo (CGHHQKG) (SEQ ID NO: 2)-BSA (cyclized peptide, cyclo(CGHHQKG); conjugated to BSA); assay: SPR multi-cycle kinetics, purified IgG4 vs cyclic peptide-BSA
T1 construct: also called cyclic peptide-BSA; cyclo-BSA peptide

[2] = target: T2, linear (CGHHQKG) (SEQ ID NO: 2) peptide-BSA (linear (non-cyclized) peptide; conjugated to BSA); assay: SPR multi-cycle kinetics, purified IgG4 vs linear peptide-BSA
T2 construct: also called linear peptide-BSA; linear-BSA peptide

[3] = target: T3, A-beta42 Oligomer (oligomer prep, made in F12 medium) (human); assay: SPR (MASS-1), antibody immobilized, A-beta42 oligomer injected
T3 construct: also called synthetic AβO
Experimental: (§1) All surface plasmon resonance (SPR) measurements were performed using a Molecular Affinity Screening System (MASS-1) (Sierra Sensors GmbH, Hamburg, Germany), an analytical biosensor that employs high intensity laser light and high speed optical scanning to monitor binding interactions in real time. In SPR direct binding assays, antibodies are covalently immobilized on individual flow cells of a High Amine Capacity (HAC) sensorchip (Sierra Sensors GmbH, Hamburg, Germany) and ligands flowed over the surface (BSA-conjugated peptides, A-beta42 Monomer and A-beta42 Oligomer). Each sample was diluted and injected in duplicate over the immobilized peptide and BSA reference surfaces, followed by injection of running buffer only for the dissociation phase. After every analytical cycle, the sensor chip surfaces were regenerated. Sensorgrams were double-referenced by subtracting out binding from the BSA reference surfaces and blank running buffer injections, and binding response report points collected in the dissociation phase.

[4] = target: T4, commercial A-beta oligomer (purchased from SynAging) (human); assay: SPR (MASS-1), antibody immobilized, commercial oligomer injected
T4 construct: also called commercial oligomer
Experimental: as §1

[5] = target: T1, cyclo (CGHHQKG) (SEQ ID NO: 2)-BSA; assay: SPR single cycle kinetics; IgG4 in cell supernatant captured on Protein A chip; peptide-BSA injected at four rising concentrations, 0.025 to 0.675 nM [Cont.]
Experimental: (§2) A four-point, three-fold dilution range from 0.025 nM to 0.675 nM peptide-BSA without regeneration between each concentration was used.

[6] = target: T2, linear (CGHHQKG) (SEQ ID NO: 2) …; assay: as above
Experimental: as §2

T3 sequence (peptide, as listed by the source): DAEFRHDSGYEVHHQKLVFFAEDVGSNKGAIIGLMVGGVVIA
T4 sequence (peptide, as listed by the source): as above
T2 sequence (P02769 25-607 limits assumed): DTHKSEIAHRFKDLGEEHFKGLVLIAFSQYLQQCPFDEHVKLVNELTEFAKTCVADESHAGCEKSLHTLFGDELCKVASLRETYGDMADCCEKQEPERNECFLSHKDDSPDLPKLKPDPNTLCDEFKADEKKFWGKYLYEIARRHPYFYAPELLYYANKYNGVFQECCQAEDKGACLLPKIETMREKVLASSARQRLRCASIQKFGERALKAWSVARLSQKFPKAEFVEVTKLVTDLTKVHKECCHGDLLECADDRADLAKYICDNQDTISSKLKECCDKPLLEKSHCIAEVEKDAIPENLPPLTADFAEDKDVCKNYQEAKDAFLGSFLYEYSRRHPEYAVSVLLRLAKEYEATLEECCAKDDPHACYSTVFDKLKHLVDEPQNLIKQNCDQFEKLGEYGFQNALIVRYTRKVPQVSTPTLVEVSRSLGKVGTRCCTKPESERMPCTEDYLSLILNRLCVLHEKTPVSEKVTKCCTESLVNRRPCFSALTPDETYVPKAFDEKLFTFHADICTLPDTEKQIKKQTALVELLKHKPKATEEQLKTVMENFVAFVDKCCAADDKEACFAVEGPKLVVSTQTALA
T1 sequence (P02769 25-607 limits assumed): as above

| Binder | Kd [1] [nM] | koff [1] [s⁻¹] | kon [1] [M⁻¹ s⁻¹] | Kd [2] [nM] | koff [2] [s⁻¹] | kon [2] [M⁻¹ s⁻¹] | Binding to oligomer prep (BRU) [3] [BRU] | Binding to commercial oligomer (BRU) [4] [BRU] | binding result [5] | binding result [6] |
| --- | --- | --- | --- | --- | --- | --- | --- | --- | --- | --- |
| B1 | 0.0274 | 0.000155 | 5.65e+06 | 0.103 | 0.000155 | 1.5e+06 | 85.6 | 3 |  |  |
| B2 | 0.0235 | 6.9e-05 | 2.94e+06 |  |  |  | 57.3 | 22.6 |  |  |
| B3 |  |  |  |  |  |  |  |  | no binding | no binding |
| B4 | 0.0647 | 0.000132 | 2.04e+06 | 0.0924 | 0.000138 | 1.49e+06 | 223 | 32.3 |  |  |
| B5 | 0.0289 | 0.000152 | 5.26e+06 |  |  |  | 30.8 | 22.3 |  |  |

— patent publication US20230141177A1 (UNIVERSITY OF BRITISH COLUMBIA, published 2023)
